From IntAct's records for PubMed 22842346

B1: High mobility group protein B1 (Mus musculus), P63158 (parent)
chain: MGKGDPKKPRGKMSSYAFFVQTCREEHKKKHPDASVNFSEFSKKCSERWKTMSAKEKGKFEDMAKADKARYEREMKTYIPPKGETKKKFKDPNAPKRPPSAFFLFCSEYRPKIKGEHPGLSIGDVAKKLGEMWNNTAADDKQPYEKKAAKLKEKYEKDIAAYRAKGKPDAAKKGVVKAEKSKKKKEEEDDEEDEEDEEEEEEEEDEDEEEDDDDE

Variants of: B1
Settings: with havr2_mouse Havcr2, Q8VIM0
Chain of havr2_mouse Havcr2, Q8VIM0 (Q8VIM0 whole entry): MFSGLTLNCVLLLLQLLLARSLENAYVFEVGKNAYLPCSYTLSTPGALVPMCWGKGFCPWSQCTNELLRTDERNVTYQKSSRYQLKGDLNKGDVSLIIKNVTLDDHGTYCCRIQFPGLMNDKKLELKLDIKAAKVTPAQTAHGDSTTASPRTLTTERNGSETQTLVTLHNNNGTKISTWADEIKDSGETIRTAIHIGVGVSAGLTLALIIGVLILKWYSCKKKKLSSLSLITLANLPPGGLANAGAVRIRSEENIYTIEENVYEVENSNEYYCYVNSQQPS
With MGKGDPKKPRGKMSSYAFFVQTCREEHKKKHPDASVNFSEFSKKCSERWKTMSAKEKGKFEAMAKADKARYEREMKTYIPPKGETKKKFKDPNAPKRPPSAFFLFCSEYRPKIKGEHPGLSIGDVAKKLGEMWNNTAADDKQPYEKKAAKLKEKYEKDIAAYRAKGKPDAAKKGVVKAEKSKKKKEEEDDEEDEEDEEEEEEEEDEDEEEDDDDE [D62A] the “effect of a mutation on the interaction” value was “decreasing interaction”.
